The supplement of paper PMC10567573

B1: TFE3 (parent)
chain: FHLGLEDILMEEEEGVVGGLSGGA

Variants of: B1
Test: protein stability index of a GFP-peptide fusion (GPS, HEK-293T) (PSI 1-6); higher = more stable
Conditions: c terminus: a fixed tail appended
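Note: lentivirally expressed fusions sorted by FACS into six bins by GFP to DsRed ratio, PSI derived from sequencing read proportions per bin multiplied by bin number.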

Protein stability index: each site, then its substitutions
G23: R 3.29; E 4.87; T 3.56; C 3.21; A 3.37; F 2.7; I 3.17
H2: Y 3.56; F 3.15; K 4.38; M 4.29; P 4.26; Q 4.44; W 2.94
L3: F 3.92; I 4.07; Q 4.22; G 3.44; S 3.5; V 4.14; K 4.49; P 4.44
D7: K 2.77; T 3; R 2.16; G 3.54
G22: T 4.26; H 3.8; P 3.64; W 2.85; L 3.31; C 3.3; R 3.39; I 3.19; F 3.34
L5: R 4.04; N 3.85; P 3.59; K 3.76; W 4.21; Q 4.46
E11: W 2.57; T 2.97; L 2.2; Q 2.91
F1: T 4.02; Y 4.24; W 4.09; G 4.95; N 5.56; M 4.85; H 5.11; D 5.21; S 4.96
I8: H 4.01; G 4.2; R 3.93; Q 4.28
A24: G 4.32; D 4.17; K 3.98; C 3.73; H 3.25; E 3.9; V 3.74; P 3.07; L 2.94
E14: V 2.53; N 2.72; K 3.34; M 2.27; T 3.25; H 2.54; P 3.53; G 2.94
G19: Q 4.09; Y 2.67; C 3.43; S 3.28; T 3.48; M 3.71; R 3.54; P 3.52; D 4.69
E13: P 2.41; W 2.18; F 1.84; D 3.3; T 3.34; R 3.1; A 2.83
E6: T 3.04; Q 3.31; R 3.3; S 2.82; K 2.68; F 2.33; N 2.73; P 3.02; M 1.93
G18: L 3.3; C 3.76; P 3.85; S 3.27; H 3.66; V 3.93; E 4.1; K 2.99
G15: A 4.1; P 3.59; S 3.92; C 3.24; E 4.39; M 3.05; N 3.84
G4: H 2.94; C 2.67; E 4.89; Q 3.54; P 3.05
M10: K 3.94; F 3.83; V 3.83; Q 4.34; H 3.58; P 4.18; C 3.83; N 3.23
L9: W 2.66; E 4.57; Q 4.39; K 4.17; H 4.08; F 3.29; Y 3.87; S 3.69
L20: I 4.08; P 3.79; H 4.24; F 4.09; K 4.55; T 4.11; A 4.74
E12: A 2.6; G 3.02; V 1.74; M 2.29; N 3.01; Y 2.63; P 2.43; I 2.51; Q 3.47
V16: G 3.97; W 3.33; E 4.3; F 2.83; L 2.77; M 3.58
V17: M 3.46; A 3.54; S 4.13; E 3.64; I 3.92
S21: R 3.7; N 3.6; T 3.54; Q 4.07
